pIC50: −log10 of the molar value.
Legend:
Assay in all cases: IEDB peptide-MHC binding, purified MHC/competitive/radioactivity; ≥ and ≤ were set here for values at or beyond the usual limits of such assays
HLA-A*02:01 = biological target: HLA-A*02:01
HLA-A*02:02 = biological target: HLA-A*02:02
HLA-A*02:03 = biological target: HLA-A*02:03
HLA-A*02:06 = biological target: HLA-A*02:06
HLA-A*68:02 = biological target: HLA-A*68:02
[1] = source organism: Vaccinia virus WR
[2] = source organism: Mammarenavirus machupoense
[3] = source organism: Influenza A virus

## LLFNKVTLA
HLA-A*02:01; source organism: SARS-CoV1
  pIC50: 8.30
HLA-A*02:02; source organism: SARS-CoV1
  pIC50: 9.02
HLA-A*02:03; source organism: SARS-CoV1
  pIC50: 8.96
HLA-A*02:06; source organism: SARS-CoV1
  pIC50: 8.05
HLA-A*68:02; source organism: SARS-CoV1
  pIC50: 6.54

## NMLRIMASL
HLA-A*02:01; source organism: SARS-CoV1
  pIC50: 7.17
HLA-A*02:02; source organism: SARS-CoV1
  pIC50: 8.47
HLA-A*02:03; source organism: SARS-CoV1
  pIC50: 7.42
HLA-A*02:06; source organism: SARS-CoV1
  pIC50: 7.30
HLA-A*68:02; source organism: SARS-CoV1
  pIC50: 5.88

## SLTTIGTIA
HLA-A*02:01; [1]
  pIC50: 6.88
HLA-A*02:02; [1]
  pIC50: 9.00
HLA-A*02:03; [1]
  pIC50: 8.43
HLA-A*02:06; [1]
  pIC50: 6.31
HLA-A*68:02; [1]
  pIC50: 6.49

## ITYCLVTHM
HLA-A*02:01; [1]
  pIC50: 5.51
HLA-A*02:02; [1]
  pIC50: 5.89
HLA-A*02:03; [1]
  pIC50: 5.63
HLA-A*02:06; [1]
  pIC50: 5.85
HLA-A*68:02; [1]
  pIC50: 5.76

## NIGCAVNTPV
HLA-A*02:01; [1]
  pIC50: 7.64
HLA-A*02:02; [1]
  pIC50: 6.90
HLA-A*02:03; [1]
  pIC50: 7.52
HLA-A*02:06; [1]
  pIC50: 6.75
HLA-A*68:02; [1]
  pIC50: 7.96

## QIMECSRML
HLA-A*02:01; [1]
  pIC50: 6.99
HLA-A*02:02; [1]
  pIC50: 6.21
HLA-A*02:03; [1]
  pIC50: 5.86
HLA-A*02:06; [1]
  pIC50: 6.02
HLA-A*68:02; [1]
  pIC50: 5.85

## RMVSLVTSFL
HLA-A*02:01; source organism: SARS-CoV1
  pIC50: 6.97
HLA-A*02:02; source organism: SARS-CoV1
  pIC50: 8.77
HLA-A*02:03; source organism: SARS-CoV1
  pIC50: 7.92
HLA-A*02:06; source organism: SARS-CoV1
  pIC50: 7.28
HLA-A*68:02; source organism: SARS-CoV1
  pIC50: 8.20

## FTSDYPFYV
HLA-A*02:01; [1]
  pIC50: 8.82
HLA-A*02:02; [1]
  pIC50: 8.68
HLA-A*02:03; [1]
  pIC50: 8.41
HLA-A*02:06; [1]
  pIC50: 8.44
HLA-A*68:02; [1]
  pIC50: 8.96

## ILRNYLRLYI
HLA-A*02:01; [1]
  pIC50: 9.00
HLA-A*02:02; [1]
  pIC50: 9.41
HLA-A*02:03; [1]
  pIC50: 9.05
HLA-A*02:06; [1]
  pIC50: 7.19
HLA-A*68:02; [1]
  pIC50: 5.58

## TLIDFYLCFL
HLA-A*02:01; source organism: SARS-CoV1
  pIC50: 8.66
HLA-A*02:02; source organism: SARS-CoV1
  pIC50: 10.39
HLA-A*02:03; source organism: SARS-CoV1
  pIC50: 8.44
HLA-A*02:06; source organism: SARS-CoV1
  pIC50: 8.52
HLA-A*68:02; source organism: SARS-CoV1
  pIC50: 6.82

## NIPELKHGLL
HLA-A*02:01; [1]
  pIC50: 5.59
HLA-A*02:02; [1]
  pIC50: 5.64
HLA-A*02:03; [1]
  pIC50: 5.57
HLA-A*02:06; [1]
  pIC50: 5.91
HLA-A*68:02; [1]
  pIC50: 7.00

## NASKFVYVSV
HLA-A*02:01; [1]
  pIC50: 6.00
HLA-A*02:02; [1]
  pIC50: 5.34
HLA-A*02:03; [1]
  pIC50: 8.07
HLA-A*02:06; [1]
  pIC50: 6.08
HLA-A*68:02; [1]
  pIC50: 7.00

## ALNIALVAV
HLA-A*02:01; [2]
  pIC50: 7.10
HLA-A*02:02; [2]
  pIC50: 7.82
HLA-A*02:03; [2]
  pIC50: 8.35
HLA-A*02:06; [2]
  pIC50: 6.43
HLA-A*68:02; [2]
  pIC50: 5.48

## VNNAVVMPA
HLA-A*02:01; [3]
  pIC50: 6.33
HLA-A*02:02; [3]
  pIC50: 6.64
HLA-A*02:03; [3]
  pIC50: 6.15
HLA-A*02:06; [3]
  pIC50: 6.08
HLA-A*68:02; [3]
  pIC50: 5.72

## CVDHPFIYV
HLA-A*02:01; [1]
  pIC50: 6.26
HLA-A*02:02; [1]
  pIC50: 6.52
HLA-A*02:03; [1]
  pIC50: 5.85
HLA-A*02:06; [1]
  pIC50: 6.83
HLA-A*68:02; [1]
  pIC50: 8.29

## DINESMSQMV
HLA-A*02:01; [1]
  pIC50: 6.80
HLA-A*02:02; [1]
  pIC50: 6.51
HLA-A*02:03; [1]
  pIC50: 6.31
HLA-A*02:06; [1]
  pIC50: 5.38
HLA-A*68:02; [1]
  pIC50: 5.68

## VITYCLVTHM
HLA-A*02:01; [1]
  pIC50: 5.88
HLA-A*02:02; [1]
  pIC50: 6.32
HLA-A*02:03; [1]
  pIC50: 6.24
HLA-A*02:06; [1]
  pIC50: 5.58
HLA-A*68:02; [1]
  pIC50: 6.41

## FVDEFYAYL
HLA-A*02:01; source organism: SARS-CoV1
  pIC50: 9.66
HLA-A*02:02; source organism: SARS-CoV1
  pIC50: 10.05
HLA-A*02:03; source organism: SARS-CoV1
  pIC50: 8.59
HLA-A*02:06; source organism: SARS-CoV1
  pIC50: 9.44
HLA-A*68:02; source organism: SARS-CoV1
  pIC50: 7.42

From the Immune Epitope Database (IEDB)
